The text below walks through data of patent US20210018508A1 (PIERRE FABRE MEDICAMENT, published 2021).

In the test the target is T1, recombinant human insulin receptor (human, UniProt P06213-2 28-944, limits assumed).
T1 construct: also called rhIR; human IR
Briefly: direct ELISA, rhIR coated at 1 µg/ml, hybridoma supernatant, anti-mouse IgG-HRP detection. The procedure: Further characterizations of the 816C12 antibody were then performed using hybridoma supernatant such as rhIGF-1R or rmIGF-1R or rhIR ELISA. In all direct ELISAs, proteins of interest were immobilized (1 μg/ml) to the bottom of each well. After saturation, hybridoma supernatants were added to the wells. After a 1-hour incubation period and a washing step, a solution of goat anti-mouse IgG—HRP labelled polyclonal antibody was used for detection, prior to the addition of the TMB substrate. The reaction was stopped with a 1M […] solution before reading the OD with a spectrophotometer at a 450 nm wavelength.
Background: ELISA stands for enzyme-linked immunosorbent assay.

T1 sequence (P06213 other isoform, or with tags, fused parts or gaps limits assumed): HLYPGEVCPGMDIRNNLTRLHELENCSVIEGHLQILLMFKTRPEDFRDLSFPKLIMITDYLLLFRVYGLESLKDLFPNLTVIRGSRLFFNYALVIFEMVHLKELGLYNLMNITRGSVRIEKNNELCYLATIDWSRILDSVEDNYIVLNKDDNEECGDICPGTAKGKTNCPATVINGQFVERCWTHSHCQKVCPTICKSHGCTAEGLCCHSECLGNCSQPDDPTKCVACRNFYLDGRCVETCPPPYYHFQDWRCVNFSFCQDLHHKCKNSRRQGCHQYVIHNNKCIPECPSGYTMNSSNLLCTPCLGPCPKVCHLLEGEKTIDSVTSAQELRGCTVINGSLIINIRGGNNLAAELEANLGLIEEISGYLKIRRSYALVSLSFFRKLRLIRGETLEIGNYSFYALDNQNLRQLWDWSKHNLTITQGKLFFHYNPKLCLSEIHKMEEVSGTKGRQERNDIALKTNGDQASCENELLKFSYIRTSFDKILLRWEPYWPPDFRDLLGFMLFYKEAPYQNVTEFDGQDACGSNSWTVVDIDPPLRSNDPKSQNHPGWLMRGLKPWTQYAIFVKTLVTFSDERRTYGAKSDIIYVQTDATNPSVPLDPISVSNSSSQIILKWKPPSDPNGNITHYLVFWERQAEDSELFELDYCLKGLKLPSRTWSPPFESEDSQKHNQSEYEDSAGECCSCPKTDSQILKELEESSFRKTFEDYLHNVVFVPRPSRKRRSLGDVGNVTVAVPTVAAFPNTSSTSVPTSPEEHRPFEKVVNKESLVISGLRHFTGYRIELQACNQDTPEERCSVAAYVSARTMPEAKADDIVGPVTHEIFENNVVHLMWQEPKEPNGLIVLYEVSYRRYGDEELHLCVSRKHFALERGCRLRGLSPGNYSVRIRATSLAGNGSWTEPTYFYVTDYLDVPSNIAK

B1: 816C12 anti-IGF-1R monoclonal antibody (antibody, V domains shown)
VH: EVQLQQSGPELVKPGASVKMSCKASGHTFTSYVLHWMKRKPGQGLEWIGYINPHNDVTKYNENFKGKATLTSDKYSSTVYMEVSSLTSEDSAVYYCVSTAYYGNGRYFDVWGAGTTVTVSS
VL: DIQMTQTTSSLSASLGDRVTISCRASQDINNYLNWYQQKPDGTVKLLIYYTSRLHSGVSSRFSGSGSGTDYSLTISNLEQEDIATYFCQQGNTLPWTFGGGTKLEIK
notes: Murine monoclonal antibody from a Balb/C hybridoma; It was used as hybridoma supernatant in the ELISAs and at 5 ug/ml in IHC; also called I-4894; antibody secreted by hybridoma CNCM I-4894
Consider B1, for which the binding result was “no binding (tested: 5 µg/ml)”.
